4 proteins from paper PMC6716841, “Modification of acetoacetyl-CoA reduction step in Ralstonia eutropha for biosynthesis of poly(3-hydroxybutyrate-co-3-hydroxyhexanoate) from structurally unrelated compounds” (Microbial Cell Factories, 2019) can be followed below.

Substrate in the data set: CC(=O)CC(=O)SCCNC(=O)CCNC(=O)[C@H](O)C(C)(C)COP(=O)(O)OP(=O)(O)OC[C@H]1O[C@@H](n2cnc3c(N)ncnc32)[C@H](O)[C@@H]1OP(=O)(O)O
Put plainly: purified protein. In kind it is biochemical, Cupriavidus necator. The conditions noted are these: 200 μM NADPH, 1 to 20 μM acetoacetyl-CoA, 100 mM Tris-HCl pH 8.0, 30 °C.

Where [1] appears, read: substrate inhibition above 12 μM.

B1: PhaB1 (Cupriavidus necator H16) (protein)
chain: MTQRIAYVTGGMGGIGTAICQRLAKDGFRVVAGCGPNSPRREKWLEQQKALGFDFIASEGNVADWDSTKTAFDKVKSEVGEVDVLINNAGITRDVVFRKMTRADWDAVIDTNLTSLFNVTKQVIDGMADRGWGRIVNISSVNGQKGQFGQTNYSTAKAGLHGFTMALAQEVATKGVTVNTVSPGYIATDMVKAIRQDVLDKIVATIPVKRLGLPEEIASICAWLSSEESGFSTGADFSLNGGLHMG
For orientation: Km means the concentration of substrate that gives half-maximal velocity. What is called Vmax is the rate approached at saturating substrate. A word on the kcat: it is the maximal rate divided by the concentration of active sites. As a reminder, the kcat/Km is the turnover number divided by the Michaelis constant. For B1, under setting [1], the Km came out at 1.99 ± 0.23 µM, the Vmax turned out to be 162 µmol/min/mg, the catalytic constant (kcat) was 71.2 ± 2.7 s⁻¹ and the kcat/Km turned out to be 3.58e+07 ± 4.4e+06 M⁻¹ s⁻¹.

B2: PhaB1 (Cupriavidus necator H16; Y185F) (protein)
chain: MTQRIAYVTGGMGGIGTAICQRLAKDGFRVVAGCGPNSPRREKWLEQQKALGFDFIASEGNVADWDSTKTAFDKVKSEVGEVDVLINNAGITRDVVFRKMTRADWDAVIDTNLTSLFNVTKQVIDGMADRGWGRIVNISSVNGQKGQFGQTNYSTAKAGLHGFTMALAQEVATKGVTVNTVSPGFIATDMVKAIRQDVLDKIVATIPVKRLGLPEEIASICAWLSSEESGFSTGADFSLNGGLHMG
B2: the Km amounted to 86.2 ± 20.6 µM, the Vmax was determined as 127 µmol/min/mg, the kcat came to 55.8 ± 7.6 s⁻¹ and the kcat/Km came out at 650000 ± 180000 M⁻¹ s⁻¹.

B3: PhaB1 (Cupriavidus necator H16; N142V/Y185F) (protein)
chain: MTQRIAYVTGGMGGIGTAICQRLAKDGFRVVAGCGPNSPRREKWLEQQKALGFDFIASEGNVADWDSTKTAFDKVKSEVGEVDVLINNAGITRDVVFRKMTRADWDAVIDTNLTSLFNVTKQVIDGMADRGWGRIVNISSVVGQKGQFGQTNYSTAKAGLHGFTMALAQEVATKGVTVNTVSPGFIATDMVKAIRQDVLDKIVATIPVKRLGLPEEIASICAWLSSEESGFSTGADFSLNGGLHMG
In the case of B3, the Michaelis constant (Km) is 109 ± 38 µM, the Vmax was found to be 53.9 µmol/min/mg, the catalytic constant (kcat) is 23.7 ± 3.7 s⁻¹ and the specificity constant (kcat/Km) is 220000 ± 80000 M⁻¹ s⁻¹.

B4: PhaB1 (Cupriavidus necator H16; N142V) (protein)
chain: MTQRIAYVTGGMGGIGTAICQRLAKDGFRVVAGCGPNSPRREKWLEQQKALGFDFIASEGNVADWDSTKTAFDKVKSEVGEVDVLINNAGITRDVVFRKMTRADWDAVIDTNLTSLFNVTKQVIDGMADRGWGRIVNISSVVGQKGQFGQTNYSTAKAGLHGFTMALAQEVATKGVTVNTVSPGYIATDMVKAIRQDVLDKIVATIPVKRLGLPEEIASICAWLSSEESGFSTGADFSLNGGLHMG
B4: the Michaelis-Menten constant (Km) is 58.5 ± 18.1 µM, the Vmax came out at 175 µmol/min/mg, the kcat is 76.7 ± 2.7 s⁻¹ and the kcat/Km was determined as 1.31e+06 ± 470000 M⁻¹ s⁻¹.
